Experimental data from PMC6367035 (Nature, 2018).

T1: Sec61 (S. cerevisiae) (S. cerevisiae, UniProt P32915 1-480, surface-exposed lysines modified with low-molecular weight polyethylenglycol (MS(PEG)12 methyl-PEG-NHS-ester))
T1 sequence (looked up): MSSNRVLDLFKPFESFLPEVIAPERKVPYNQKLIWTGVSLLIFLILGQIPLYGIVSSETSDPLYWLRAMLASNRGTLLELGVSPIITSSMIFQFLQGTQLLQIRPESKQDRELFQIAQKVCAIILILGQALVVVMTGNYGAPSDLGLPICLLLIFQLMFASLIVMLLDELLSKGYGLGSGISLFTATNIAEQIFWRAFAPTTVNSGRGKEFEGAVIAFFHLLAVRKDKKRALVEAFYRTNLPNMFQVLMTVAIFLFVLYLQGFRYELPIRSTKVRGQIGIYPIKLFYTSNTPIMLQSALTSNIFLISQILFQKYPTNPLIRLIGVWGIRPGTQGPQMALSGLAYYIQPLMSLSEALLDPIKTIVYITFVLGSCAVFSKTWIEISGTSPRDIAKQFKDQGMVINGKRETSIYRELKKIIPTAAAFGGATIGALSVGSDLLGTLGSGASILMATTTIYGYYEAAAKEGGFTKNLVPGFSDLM


target: T1, Sec61 (S. cerevisiae); experiment: cryo-EM structure

binding result | Binder
binds | Sss1 (S. cerevisiae) (natural protein, UniProt P35179 1-80, looked up, surface-exposed lysines modified with low-molecular weight polyethylenglycol (MS(PEG)12 methyl-PEG-NHS-ester)) MARASEKGEEKKQSNNQVEKLVEAPVEFVREGTQFLAKCKKPDLKEYTKIVKAVGIGFIAVGIIGYAIKLIHIPIRYVIV
binds | Sbh1 (S. cerevisiae) (natural protein, UniProt P52870 1-82, looked up, surface-exposed lysines modified with low-molecular weight polyethylenglycol (MS(PEG)12 methyl-PEG-NHS-ester)) MSSPTPPGGQRTLQKRKQGSSQKVAASAPKKNTNSNNSILKIYSDEATGLRVDPLVVLFLAVGFIFSVVALHVISKVAGKLF
binds | Sec71 (S. cerevisiae) (natural protein, UniProt P33754 1-206, looked up, glycan (cleaved by Endoglycosidase H); surface-exposed lysines modified with low-molecular weight polyethylenglycol (MS(PEG)12 methyl-PEG-NHS-ester)) MSEFNETKFSNNGTFFETEEPIVETKSISVYTPLIYVFILVVSLVMFASSYRKKQAKKISEQPSIFDENDAHDLYFQIKEMSENEKIHEKVLKAALLNRGAESVRRSLKLKELAPQINLLYKNGSIGEDYWKRFETEVKLIELEFKDTLQEAERLQPGWVQLFVMVCKEICFNQALSRRYQSILKRKEVCIKEWELKINNDGRLVN
